Values belong to the binder of their own block, whether it stands above or below them.
Legend:
[1] = target: T1, human CLEC-1A expressed on the cell membrane (human, UniProt Q8NC01 1-280); test: flow cytometry on U266 cells
T1 construct: Endogenous on human U266 myeloma cells, on monocyte-derived TGFb-DC and macrophages; on CHO cells after transduction with a Clec-1 expressing lentivirus; also called U266 CLEC1; CLEC-1A on U266 cells
T1 sequence: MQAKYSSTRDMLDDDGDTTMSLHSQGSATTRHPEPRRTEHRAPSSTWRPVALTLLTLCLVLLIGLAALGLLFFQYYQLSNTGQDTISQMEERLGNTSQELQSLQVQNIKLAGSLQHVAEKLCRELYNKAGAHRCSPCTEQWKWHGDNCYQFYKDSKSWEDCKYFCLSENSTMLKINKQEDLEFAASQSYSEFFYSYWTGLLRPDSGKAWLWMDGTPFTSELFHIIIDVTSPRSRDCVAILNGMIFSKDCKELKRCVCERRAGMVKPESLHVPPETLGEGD
Description: (§1) Method: To measure binding of anti-CLEC1 on human U266 cell lines (pre-blocked with Fcblock to blocking FcR), antibodies at different concentrations were incubated for 30 min at 4° C., and washed before stained 30 min at 4° C. with PE-labelled anti-human IgG (Biolegend; reference 409304). Samples were analyzed on Cytoflex cytofluorometer (Beckman Coulter). The MFI of anti-CLEC1 was compared between all anti-CLEC1 antibodies and percentage of stained cells was analysed in all conditions.

[2] = target: T2, recombinant human CLEC-1 protein with His Tag (#1704-CL R&D Systems) (human, UniProt Q8NC01 74-280); test: ELISA on immobilised His-CLEC1 (from FIGURE 14)
T2 construct: Bought protein; also called His-CLEC1; His Clec-1; not shown: His tag
T2 sequence: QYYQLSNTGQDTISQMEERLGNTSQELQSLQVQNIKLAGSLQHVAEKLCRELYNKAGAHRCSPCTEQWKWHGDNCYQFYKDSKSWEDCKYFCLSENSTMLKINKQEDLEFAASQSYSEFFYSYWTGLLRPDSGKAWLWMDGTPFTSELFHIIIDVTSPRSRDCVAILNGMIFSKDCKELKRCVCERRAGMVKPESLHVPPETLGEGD
Description: (§2) Method: The binding activity of the anti-hCLEC1 antibodies was assessed by ELISA (Enzyme-linked immunosorbent assay). […] A second ELISA assays was performed, like above, with immobilization of CLEC1-Fc (OSE Immunotherapeutics) at 2 μg/ml. A third ELISA assays was performed to see the cross-reactivity with mouse CLEC1. Like above, ELISA was made with immobilization of mouse Fc-CLEC1 (OSE Immunotherapeutics) at 2 μg/ml in carbonate buffer instead of His-Clec. Purified antibodies were added at different concentrations to measure binding. […] Control antibody is a commercial anti-CLEC-1A antibody.

[3] = target: T1, human CLEC-1A expressed on the cell …; test: flow cytometry on CHO-Clec-1 cells (from FIGURE 21)
Description: To measure binding of anti-clec on CHO-Clec-1 cells, human Fc Receptor Binding Inhibitor diluted at 1/200 (BD pharmingen; USA; reference 564220) was first added for 30 min at room-temperature to block human Fc receptors on CHO-Clec-1 cells to reduce background. Then, antibodies were incubated for 30 min at 4° C., and washed before stained 15 min at 4° C. with PE-labelled anti-human IgG Fc (Biolegend; USA; reference 409303). Samples were analyzed on citoflex (Beckman coulter)

[4] = target: T2, recombinant human CLEC-1 protein with …; test: Blitz biolayer interferometry, His-CLEC1 on Ni-NTA biosensor, antibody at 20 ug/mL
[5] = target: T3, Fc-CLEC1 labelled with Alexa Fluor 488 (human, Alexa Fluor 488 label (sites not given)); test: FACS competition: blocks Fc-CLEC1-A488 (10 nM) binding to CLEC-1 ligand on permeabilised Raji cells; IC50 median
T3 construct: also called Fc-CLEC1-A488; Alexa488-Fc-Clec-1
T3 chain: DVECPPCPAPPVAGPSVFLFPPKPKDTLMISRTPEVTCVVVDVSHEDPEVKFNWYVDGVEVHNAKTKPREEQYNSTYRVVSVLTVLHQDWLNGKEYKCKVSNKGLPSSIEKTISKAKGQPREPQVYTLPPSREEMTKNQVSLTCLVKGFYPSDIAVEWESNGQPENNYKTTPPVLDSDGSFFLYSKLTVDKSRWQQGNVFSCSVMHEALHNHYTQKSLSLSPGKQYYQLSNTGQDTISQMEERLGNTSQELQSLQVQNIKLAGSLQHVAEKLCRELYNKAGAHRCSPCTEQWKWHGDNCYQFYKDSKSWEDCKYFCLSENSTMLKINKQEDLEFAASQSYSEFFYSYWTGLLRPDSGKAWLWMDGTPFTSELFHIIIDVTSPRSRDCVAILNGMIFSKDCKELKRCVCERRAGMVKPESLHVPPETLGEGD
Description: (§3) To measure competition, purified anti-Clec antibodies at different concentrations were pre-incubated in Perm Wash Buffer with Alexa488-Fc-Clec-1 for 15 min at room temperature. Pre-incubated mixes were then incubated on permeabilized and Fc-blocked Raji cells for 30 min on ice. Binding on cells were then fixed by PFA 2% in cold PBS for 10 min on ice and analyzed on CytoFlex cytofluorometer (Beckman Coulter France, Villepinte).
(§4) Methods. To measure competition on permeabilised Raji (CytoFix/cytoperm kit, BD Biosciences) which expressed CLEC1 ligand, Fc-CLEC1-labelled A488 which bound specifically to permeabilised Raji was used. To measure competition, Fc-CLEC1 labelled A488 at 10 nM or 20 nM was mixed with mouse anti-hCLEC1 at different concentrations for 15 min at RT then added on these cells for 30 min at 4° C. […] To measure competition on PMBC, we used human PBMC pre-treated by UV for 18 h to obtain apoptotic PBMC, which expressed CLEC1 ligand. Fc-CLEC1-labelled A488 bound specifically apoptotic UV-treated PBMC. To measure competition, Fc-CLEC1 labelled A488 at 10 nM was mixed with mouse anti-hCLEC1 at different concentrations for 15 min at RT then added on these cells for 30 min at 4° C.

[6] = target: T2, recombinant human CLEC-1 protein with …; test: ELISA on immobilised His-CLEC1 (from FIGURE 12)
Description: as §2

[7] = target: T2, recombinant human CLEC-1 protein with …; test: ELISA on immobilised His-CLEC1, anti-human IgG peroxidase
[8] = target: T3, Fc-CLEC1 labelled with Alexa Fluor 488; test: FACS competition: blocks Fc-CLEC1-A488 (10 nM) binding to CLEC-1 ligand on UV-treated PBMC
Description: (§5) Competition were also measured on UV pre-treated pro-apoptotic human PBMCs, which can also express the ligand after a treatment under UV radiation for 18 hours. After UV treatment, cells were first washed in cold-PSE and then blocked during 30 min at room temperature with human Fc-block 50-fold diluted in PSE, and then replaced on ice. Purified anti-Clec antibodies at different concentrations were pre-incubated with Alexa488-Fc-Clec-1 in PSE at different concentrations for 15 min at room temperature. Pre-incubated mixes were then incubated on Fc-blocked/SAB (#34005-100, Invitrogen, Illkirch, France) pro-apoptotic PBMCs for 30 min on ice. Binding on cells were then fixed by PFA 2% in cold PBS for 10 min on ice and analyzed on CytoFlex cytofluorometer (Beckman Coulter France, Villepinte).
as §4

[9] = target: T3, Fc-CLEC1 labelled with Alexa Fluor 488; test: FACS competition: blocks Fc-CLEC1-A488 (10 nM) binding to CLEC-1 ligand on UV-treated PBMC; % binding
Description: as §5, §4

[10] = target: T1, human CLEC-1A expressed on the cell …; test: flow cytometry on U266 cells, PE anti-human IgG; % positive cells
Description: as §1

[11] = target: T1, human CLEC-1A expressed on the cell …; test: flow cytometry on U266 cells, PE anti-human IgG; median fluorescence
Description: as §1

[12] = target: T2, recombinant human CLEC-1 protein with …; test: BLI (Blitz), CLEC1-His on Ni-NTA biosensor, antibody at 20 ug/mL; chimeric antibody, FIG. 17
Description: Analysis was performed with a BLItz System (Fortébio, #C22-2 No 61010-1, Molecular Devices, San José, USA).
The affinity of the anti-hCLEC1 antibodies, was measured with Blitz system (Forté Bio, C22-2 No 61010-1).

[13] = target: T3, Fc-CLEC1 labelled with Alexa Fluor 488; test: FACS competition: blocks Fc-CLEC1-A488 (10 nM) binding to CLEC-1 ligand on permeabilised Raji cells; % binding cells
Description: as §3, §4

- EC50 [1]: 1.12 µg/mL
- EC50 [2]: 0.00846 µg/mL
- EC50 [3]: 1.38 µg/mL
- Kd [4]: 0.448 nM
- koff [4]: 0.00019 s⁻¹
- kon [4]: 188000 M⁻¹ s⁻¹
- IC50 [5]: 5.84 nM
B1: chimeric anti-CLEC-1A antibody 11H11 (antibody, human IgG4 S228P, kappa, V domains shown)
VH: QIHLVQSGPELKKPGETVKISCKASGYTFTNFGMNWVKQAPGKGLKWMGWINTNTGEPTYADDFKGRFAFSLETSASTAYLQINNLKNEDTATYFCARGAPAWFTYWGQGTLVTVSA
VL: DIQMTQSPASLSASVGETVTITCRATENIYSYLAWYQQKQGKSPQFLVYNAKTLAEGMPSRFSGSGSGTQFSLKINILQPEDFGTYYCQHHFGTPLTFGAGTKLELKR
notes: also called 11H11chim; 11H11-VHwt-FcG4m / 11H11-VLwt-CLhk

- EC50 [1]: 0.251 µg/mL
- EC50 [6]: 0.0215 µg/mL
- EC50 [3]: 0.123 µg/mL
- EC50 (read off the curve) [7]: ~0.02 µg/mL
- Kd [4]: 108 nM
- koff [4]: 0.00169 s⁻¹
- kon [4]: 15700 M⁻¹ s⁻¹
- IC50 [8]: 0.779 µg/mL
- IC50 (read off the curve) [9]: ~1 µg/mL
- IC50 [5]: 8.67 nM
B2: chimeric anti-CLEC-1A antibody 15E3 (antibody, human IgG4 S228P, kappa, V domains shown)
VH: QVQLQQSGPELVKPGASVKMSCKASGFTFTDYVIAWVKVRTGQGLEWIGEIYPGSGSIYYNEKFKGKATLTADKSSNTAYMQLSSLTSEDSAVYFCASSTVVAFDYWGQGTTLTVSS
VL: EIVLTQSPTTLAASPGEKIIITCSDSSSISSNYLHWYQQKPGFSPKLLIYGTSNLASGVPARFSGSGSGTTYSLTIGTMEAEDVATYYCQQGSSIPRTFGGGTKLEIKR
notes: also called 15E3chim; 15E3-VHwt-FcG4m / 15E3-VLwt-CLhk

- EC50 [1]: 0.0847 µg/mL
- EC50 [6]: 0.164 µg/mL
- EC50 (read off the curve) [10]: ~0.06 µg/mL
- EC50 (read off the curve) [11]: ~0.06 µg/mL
- Kd [12]: ~10 nM
- Kd [4]: 17.4 nM
- koff [4]: 0.0012 s⁻¹
- kon [4]: 68900 M⁻¹ s⁻¹
- IC50 [8]: 1.19 µg/mL
- IC50 (read off the curve) [9]: ~0.8 µg/mL
- IC50 [5]: 13.7 nM
- IC50 (read off the curve) [13]: ~10 nM
B3: chimeric anti-CLEC-1A antibody 5D1 (antibody, human IgG4 S228P, kappa, V domains shown)
VH: QVQLKESGPGLVAPSQSLSITCTISGFSLTSYGVHWVRQPPGKGLEWLVVIWSDGSTIYNSALKSRLSISKDNSKSQVFLKMNSLQTDDTAMYYCARHGGYYNYFDYWGQGTTLTVSS
VL: DIQMNQSPSSLSASLGDTITITCHASQNINVWLSWYQQKPGNIPKLLIYKASNLHTGVPSRFSGSGSGTGFTLTISSLQPEDIATYYCQQGQSYWTFGGGTKLEIKR
notes: also called 5D1chim; 5D1-VHwt-FcG4m / 5D1-VLwt-CLhk

— patent publication US20230331852A1 (OSE IMMUNOTHERAPEUTICS, published 2023)
